How the values were obtained:
[1] = target: T1, recombinant human IL-8, (ser-IL-8)72 (human, UniProt P10145); test: competitive binding RIP with unlabeled IL-8, Scatchard analysis
[2] = target: T1, recombinant human IL-8, (ser-IL-8)72
Human IL-8 [3] = test: IL-8 mediated release of elastase by neutrophils (mAb 5.12.14); format: cell-based; details: 1:1 ratio of IL-8 to mAb
Description: One of the antibodies, mAb 5.12.14, was further studied to determine whether it could block the IL-8 mediated release of elastase by neutrophils. Briefly, human neutrophils were resuspended in Hanks balanced salt solution (Gibco, Grand Island, N.Y.) containing 1.0% BSA, Fraction V (Sigma, St. Louis, Mo.), 2 mg/ml alpha-D-glucose (Sigma), 4.2 mM sodium bicarbonate (Sigma) and 0.01M HEPES, pH 7.1 (JRH Bioscience, Lenexa, Kans.). A stock of cytochalasin B (Sigma) was prepared (5 mg/ml in dimethylsulfoxide (Sigma) and stored at 2°-8° C. Cytochalasin B was added to the neutrophil preparation to produce a final concentration of 5 μg/ml, and incubated for 15 min at 37° C. Human IL-8 was incubated with mAb 5.12.14 (20 μl), or a negative control antibody, in 1 ml polypropylene tubes (DBM Scientific, San Fernando, Calif.) for 30 min at 37° C. The final assay concentrations of IL-8 were 50 and 500 nM. The monoclonal antibodies were diluted to produce the following ratios (IL-8:Mab): 1:50, 1:10, 1:2, 1:1, and 1:0.25. Cytochalasin B-treated neutrophils were added (100 μl/tube) and incubated for 2 hours at 25° C. The tubes were centrifuged (210×g, 2°-8° C.) for 10 min, and supernatants were transferred to 96 well tissue culture plates (30 μl/well). […] Absorbance was measured at 405 nm (SLT 340 ATTC plate reader, SLT Lab Instruments, Austria).

IL-8 [4] = test: Radioimmune precipitation test (RIP): capture of soluble 125I-IL-8; format: binding, human
Description: The ability of these monoclonal antibodies to capture soluble ^125 I-IL-8 was assessed by a radioimmune precipitation test (RIP). Briefly, tracer ^125 I-IL-8 (4×10^4 cpm) was incubated with various dilutions of the monoclonal anti-IL-8 antibodies in 0.2 ml of PBS containing 0.5% BSA and 0.05% Tween 20 (assay buffer) for 1 hr at room temperature. One hundred microliters of a predetermined concentration of goat anti-mouse Ig antisera (Pel-Freez, Rogers, Ariz.) were added and the mixture was incubated at room temperature for 1 hr. Immune complexes were precipitated by the addition of 0.5 ml of 6% polyethylene glycol (M.W. 8000) kept at 4° C. After centrifugation at 2,000×g for 20 min at 4° C., the supernatant was removed by aspiration and the radioactivity remaining in the pellet was counted in a gamma counter. Percent specific binding was calculated as (precipitated cpm--background cpm)/(total cpm--background cpm).

[5] = Isoelectric focusing (IEF) pattern; format: physicochemical; details: IEF polyacrylamide gel pH 3-9
Description: The isoelectric focusing (IEF) pattern of each mAb was determined by applying purified antibodies on an IEF polyacrylamide gel (pH 3-9, Pharmacia) using the Fast gel system (Pharmacia, Piscataway, N.J.). The IEF gel was pretreated with pharmalyte containing 1% Triton X100 (Sigma, St. Louis, Mo.) for 10 min before loading the samples. The IEF pattern was visualized by silver staining according to the instructions from the manufacturer. All of the monoclonal antibodies had different IEF patterns, confirming that they originated from different clones.

IL-8 [6] = test: Neutrophil chemotaxis induced by IL-8, Boyden chamber method; format: cell-based, human; details: 1:10 ratio of IL-8 to mAb; IL-8 20 nM
Description: The ability of the anti-IL-8 antibodies to block neutrophil chemotaxis induced by IL-8 was tested as follows. Neutrophil chemotaxis induced by IL-8 was determined using a Boyden chamber method (Larsen, et al., Science 243:1464 (1989)). One hundred μl of human neutrophils (10^6 cells/ml) resuspended in RPMI containing 0.1% BSA were placed in the upper chamber and 29 μl of the IL-8 (20 nM) with or without monoclonal antibodies were placed in the lower chamber. Cells were incubated for 1 hr at 37° C. Neutrophils migrated into the lower chamber were stained with Wright's Giemsa stain and counted under the microscope (100×magnification). Approximately 10 different fields per experimental group were examined. Neutralizing monoclonal antibodies 5.12.14 and 4.1.3 blocked almost 70% of the neutrophil chemotactic activity of IL-8 at 1:10 ratio of IL-8 to mAb.

IL-8 [7] = test: Competitive binding ELISA (epitopes), biotinylated mAb vs unlabeled mAb; set-up: species or system human; details: ratio of biotinylated mAb to unlabeled mAb 1:100
Description: To assess whether these monoclonal antibodies bound to the same epitopes, a competitive binding ELISA was performed. […] Thus, mAb 4.1.3 and mAb 5.2.3 bind to a different epitope(s) than the epitope recognized by monoclonal antibodies 12.3.9, 4.8 and 5.12.14.

IL-8 [8] = test: Receptor binding assay: 125I-IL-8 bound to human neutrophils in presence of mAbs; details: 1:25 molar ratio of IL-8 to mAb
Description: To assess the ability of these monoclonal antibodies to neutralize IL-8 activity, the amount of ^125 I-IL-8 bound to human neutrophils in the presence of various amounts of culture supernatants and purified monoclonal antibodies was measured. Neutrophils were prepared by using Mono-Poly Resolving Medium (M-PRM) (Flow Lab. Inc., McLean, Va). Briefly fresh, heparinized human blood was loaded onto M-PRM at a ratio of blood to medium, 3.5:3.0, and centrifuged at 300×g for 30 min at room temperature. Neutrophils enriched at the middle layer were collected and washed once in PBS. Such a preparation routinely contained greater than 95% neutrophils according to the Wright's Giemsa staining. The receptor binding assay was done as follows. 50 μl of ^125 I-IL-8 (5 ng/ml) was incubated with 50 μl of unlabeled IL-8 (100 μg/ml) or monoclonal antibodies in PBS containing 0.1% BSA for 30 min at room temperature. The mixture was then incubated with 100 μl of neutrophils (10^7 cells/ml) for 15 min at 37° C. The ^125 I-IL-8 bound was separated from the unbound material by loading mixtures onto 0.4 ml of PBS containing 20% sucrose and 0.1% BSA and by centrifugation at 300×g for 15 min. The supernatant was removed by aspiration and the radioactivity associated with the pellet was counted in a gamma counter.

Human IL-8 [9] = test: Human IL-8 mediated neutrophil chemotaxis, 96-well chamber, calcein AM-labeled neutrophils; format: cell-based
Description: Human neutrophils were isolated, counted and resuspended at 5×10^6 cells/ml in Hank's balanced salt solution (abbreviated HBSS; without calcium and magnesium) with 0.1% bovine serum albumin. The neutrophils were labeled by adding calcein AM (Molecular Probe, Eugene, Oreg.) at a final concentration of 2.0 μM. Following a 30 minute incubation at 37° C., cells were washed twice with HBSS-BSA and resuspended at 5×10^6 cells/ml.
Chemotaxis experiments were carried out in a Neuro Probe (Cabin John, Md.) 96-well chamber, model MBB96. Experimental samples (buffer only control, IL-8 alone or IL-8 +Fabs) were loaded in a Polyfiltronics 96-well View plate (Neuro Probe Inc.) placed in the lower chamber. […]
The relative number of neutrophils migrating through the filter (Neutrophil migration index) was determined by measuring fluorescence intensity of the filter and the fluorescence intensity of the contents of the lower chamber and adding the two values together. Fluorescence intensity was measured with a CytoFluor 2300 fluorescent plate reader (Millipore Corp. Bedford, Mass.) configured to read a Corning 96-well plate using the 485-20 nm excitation filter and a 530-25 emission filter, with the sensitivity set at 3.

B1: anti-IL-8 monoclonal antibody 5.12.14 (antibody, V domains shown)
VH: EVQLVESGGGLVPPGGSLKLSCAASGFIFSSYGMSWVRQTPGKSLELVATINNNGDSTYYPDSVKGRFTISRDNAKNTLYLQMSSLKSEDTAMFYCARALISSATWFGYWGQGTLVTVSA
VL: DIVMTQSQKFMSTSVGDRVSVTCKASQNVGTNVAWYQQKPGQSPKALIYSSSYRYSGVPDRFTGSGSGTDFTLTISHVQSEDLADYFCQQYNIYPLTFGPGTKLELKR
Kd [1]: 0.3 nM
neutrophil chemotaxis induced by IL-8 (Boyden chamber) [2]: 70%

B2: mAb 5.12.14: murine monoclonal antibody against human IL-8, isotype IgG2a, hybridoma ATCC HB 11553 (antibody, V domains shown)
VH: ASGFIFSSYGMSWVRQTPGKSLELVATINNNGDSTYYPDSVKGRFTISRDNAKNTLYLQMSSLKSEDTAMFYCARALISSATWFGYWGQGTLVTVSAAKTTAPSVYP
VL: KASQNVGTNVAWYQQKPGQSPKALIYSSSYRYSGVPDRFTGSGSGTDFTLTISHVQSEDLADYFCQQYNIYPLTFGPGTKLELKRADAAPPTVSIFPPFE
block of release of elastase from neutrophils (Human IL-8 [3]): effectively block
capture of soluble 125I-IL-8 in the RIP (IL-8 [4]): very efficiently
% Specific Binding to IL-8 (IL-8 [4]; RIP, soluble 125I-IL-8): 98%
pI [5]: 6.2-7.4
block of the neutrophil chemotactic activity of IL-8 (IL-8 [6]): ~70%
inhibition of binding of biotinylated mAb 4.1.3 by unlabeled mAb (IL-8 [7]): not by mAb 5.12.14
inhibition of binding of biotinylated mAb 5.12.14 by unlabeled mAb (IL-8 [7]): significantly inhibited
inhibition of the binding of IL-8 to human neutrophils (IL-8 [8]): greater than 85%

B3: 5.12.14 Fab (antibody)
heavy: EVQLVESGGGLVPPGGSLKLSCAASGFIFSSYGMSWVRQTPGKSLELVATINNNGDSTYYPDSVKGRFTISRDNAKNTLYLQMSSLKSEDTAMFYCARALISSATWFGYWGQGTLVTVSAASTKGPSVFPLAPSSKSTSGGTAALGCLVKDYFPEPVTVSWNSGALTSGVHTFPAVLQSSGLYSLSSVVTVPSSSLGTQTYICNVNHKPSNTKVDKKVEPKSCDKTHT
light: B2 VL
inhibition of human IL-8 mediated neutrophil chemotaxis (Human IL-8 [9]): inhibition

B4: 6G.4.25 Fab (antibody)
heavy: EIQLQQSGPELMKPGASVKISCKASGYSFSSHYMHWVKQSHGKSLEWIGYIDPSNGETTYNQKFKGKATLTVDTSSSTANVHLSSLTSDDSAVYFCARGDYRYNGDWFFDVWGAGTTVTVSSASTKGPSVFPLAPSSKSTSGGTAALGCLVKDYFPEPVTVSWNSGALTSGVHTFPAVLQSSGLYSLSSVVTVPSSSLGTQTYICNVNHKPSNTKVDKKVEPKSCDKTHT
light: DIVMTQTPLSLPVSLGDQASISCRSSQSLVHGIGNTYLHWYLQKPGQSPKLLIYKVSNRFSGVPDRFSGSGSGTDFTLRISRVEAEDLGLYFCSQSTHVPLTFGAGTKLELKRAVAAPTVFIFPPSSEQLKSGTASVVCLLNNFYPREAKVQWKVDNALQSGNSQESVTEQDSKDSTYSLSSTLTLSKADYEKHKVYACEVTHQGLSSPVTKSFNRGEC
inhibition of human IL-8 mediated neutrophil chemotaxis (Human IL-8 [9]): inhibition

Source: patent US5686070A, “Methods for treating bacterial pneumonia” (Genentech, Inc., priority 1995, dated 1997)
